Reference: US20230312743A1 (MIROBIO, published 2023)
Where a chain is given by its changes, count along the chain named. Names and notes keep the numbering of the source.

T1: human FcγR2A 131H allotype (recombinant, extracellular domain only) (human, UniProt P12318 34-217)
T1 construct: extracellular domain; 131H allotype; Position 131 is the customary mature-protein numbering; also called FcyR2A (131H)
T1 sequence (looked up): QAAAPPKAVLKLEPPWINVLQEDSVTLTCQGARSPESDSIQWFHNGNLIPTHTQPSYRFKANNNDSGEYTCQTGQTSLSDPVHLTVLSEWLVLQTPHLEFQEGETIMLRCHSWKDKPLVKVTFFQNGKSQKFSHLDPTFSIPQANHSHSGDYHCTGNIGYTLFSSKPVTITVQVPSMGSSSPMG

T2: human FcγR2A 131R allotype (recombinant, extracellular domain only) (human, UniProt P12318 34-217)
T2 construct: extracellular domain; 131R allotype; Position 131 is the customary mature-protein numbering; also called FcyR2A (131R)
T2 sequence (looked up): T1 sequence (looked up) with H134R

T3: human FcγR2B (recombinant, extracellular domain only) (human, UniProt P31994 43-217)
T3 construct: extracellular domain; also called FcyR2B; FcgR2B
T3 sequence (looked up): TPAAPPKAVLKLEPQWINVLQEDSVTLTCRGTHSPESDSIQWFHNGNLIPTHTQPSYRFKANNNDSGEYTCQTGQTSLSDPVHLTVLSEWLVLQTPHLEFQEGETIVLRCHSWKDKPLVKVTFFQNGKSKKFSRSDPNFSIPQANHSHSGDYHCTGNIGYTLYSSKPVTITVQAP

B1: humCL19v1 hIgG1 L235N (antibody)
VH: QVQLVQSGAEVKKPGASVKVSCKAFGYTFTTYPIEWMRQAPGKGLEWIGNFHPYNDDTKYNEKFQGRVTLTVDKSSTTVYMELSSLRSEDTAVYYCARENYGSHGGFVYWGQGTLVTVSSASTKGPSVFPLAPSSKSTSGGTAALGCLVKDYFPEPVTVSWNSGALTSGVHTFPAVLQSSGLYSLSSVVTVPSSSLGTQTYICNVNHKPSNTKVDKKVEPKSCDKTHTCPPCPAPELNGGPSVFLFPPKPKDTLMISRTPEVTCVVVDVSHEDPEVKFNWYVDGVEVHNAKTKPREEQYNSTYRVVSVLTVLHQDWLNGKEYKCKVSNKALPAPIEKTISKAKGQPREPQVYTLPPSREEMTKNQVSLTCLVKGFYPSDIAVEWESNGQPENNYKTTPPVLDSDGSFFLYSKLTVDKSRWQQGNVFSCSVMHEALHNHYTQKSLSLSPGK
VL: ENQLTQSPSSLSASVGDRVTITCRASSSVISSYLHWYQQKPGKAPKLLIYSTSNLASGVPSRFSGSGSGTDYTLTISSLQPEDFATYYCQQYNSYPLTFGGGTKLEIKRTVAAPSVFIFPPSDEQLKSGTASVVCLLNNFYPREAKVQWKVDNALQSGNSQESVTEQDSKDSTYSLSSTLTLSKADYEKHKVYACEVTHQGLSSPVTKSFNRGEC
B2: humCL19v1 hIgG1 L235H (antibody)
VH: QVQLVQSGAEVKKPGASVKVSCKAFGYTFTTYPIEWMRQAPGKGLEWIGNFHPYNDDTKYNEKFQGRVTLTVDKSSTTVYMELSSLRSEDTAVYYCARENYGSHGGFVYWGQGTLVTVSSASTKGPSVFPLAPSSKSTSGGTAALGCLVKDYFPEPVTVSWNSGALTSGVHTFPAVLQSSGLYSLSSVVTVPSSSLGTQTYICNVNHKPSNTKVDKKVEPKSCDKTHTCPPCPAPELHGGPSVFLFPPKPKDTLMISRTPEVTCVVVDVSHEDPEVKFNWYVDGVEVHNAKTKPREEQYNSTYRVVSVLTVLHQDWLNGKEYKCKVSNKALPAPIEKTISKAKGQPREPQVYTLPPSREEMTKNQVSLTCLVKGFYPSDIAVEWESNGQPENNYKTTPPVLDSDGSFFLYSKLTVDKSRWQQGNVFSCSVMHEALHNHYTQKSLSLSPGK
VL: B1 VL
B3: humCL19v1 P238D (antibody, human IgG1, kappa)
heavy: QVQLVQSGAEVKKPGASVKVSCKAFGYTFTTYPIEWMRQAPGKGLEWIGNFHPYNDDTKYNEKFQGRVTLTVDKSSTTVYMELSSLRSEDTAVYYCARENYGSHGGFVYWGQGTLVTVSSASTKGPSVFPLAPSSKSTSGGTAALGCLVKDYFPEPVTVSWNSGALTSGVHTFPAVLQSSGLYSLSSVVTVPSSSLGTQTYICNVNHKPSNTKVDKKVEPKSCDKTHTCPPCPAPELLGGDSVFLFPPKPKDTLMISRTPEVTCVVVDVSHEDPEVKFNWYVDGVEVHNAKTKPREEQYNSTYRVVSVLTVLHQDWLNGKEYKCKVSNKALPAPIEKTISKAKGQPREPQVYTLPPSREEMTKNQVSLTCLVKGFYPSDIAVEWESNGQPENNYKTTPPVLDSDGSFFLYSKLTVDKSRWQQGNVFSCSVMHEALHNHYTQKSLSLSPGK
light: B1 VL
notes: That makes them humCL19v1 P238D; also called hIgG1 P238D; P238D mutated humCL19v1
B4: humCL19v1 hIgG1 S239I (antibody)
VH: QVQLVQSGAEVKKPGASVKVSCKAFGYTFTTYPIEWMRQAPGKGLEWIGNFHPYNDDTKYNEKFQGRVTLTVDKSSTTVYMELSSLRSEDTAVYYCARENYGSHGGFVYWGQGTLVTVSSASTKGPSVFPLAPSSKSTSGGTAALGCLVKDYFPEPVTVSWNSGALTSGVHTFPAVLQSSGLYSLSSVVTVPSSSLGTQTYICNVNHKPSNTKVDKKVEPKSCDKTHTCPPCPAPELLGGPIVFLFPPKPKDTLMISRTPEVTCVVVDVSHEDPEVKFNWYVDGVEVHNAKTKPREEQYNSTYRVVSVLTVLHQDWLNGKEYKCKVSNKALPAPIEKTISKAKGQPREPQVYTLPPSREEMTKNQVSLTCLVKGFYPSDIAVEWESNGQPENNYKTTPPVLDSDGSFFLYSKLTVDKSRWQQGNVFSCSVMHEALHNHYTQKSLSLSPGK
VL: B1 VL
B5: humCL19v1 hIgG1 V266M (antibody)
VH: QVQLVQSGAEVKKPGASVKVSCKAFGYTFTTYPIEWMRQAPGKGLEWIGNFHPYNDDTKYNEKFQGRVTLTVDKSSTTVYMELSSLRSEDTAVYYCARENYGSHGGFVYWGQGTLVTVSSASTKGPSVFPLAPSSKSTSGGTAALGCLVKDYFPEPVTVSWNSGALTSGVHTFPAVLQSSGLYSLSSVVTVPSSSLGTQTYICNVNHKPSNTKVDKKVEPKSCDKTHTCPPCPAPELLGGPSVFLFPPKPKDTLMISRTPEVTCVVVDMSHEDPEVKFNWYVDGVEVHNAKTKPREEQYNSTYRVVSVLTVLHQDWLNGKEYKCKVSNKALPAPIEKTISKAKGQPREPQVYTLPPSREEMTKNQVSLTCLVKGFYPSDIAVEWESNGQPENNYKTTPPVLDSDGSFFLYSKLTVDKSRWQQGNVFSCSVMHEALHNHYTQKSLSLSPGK
VL: B1 VL
B6: humCL19v1 hIgG1 S239V (antibody)
VH: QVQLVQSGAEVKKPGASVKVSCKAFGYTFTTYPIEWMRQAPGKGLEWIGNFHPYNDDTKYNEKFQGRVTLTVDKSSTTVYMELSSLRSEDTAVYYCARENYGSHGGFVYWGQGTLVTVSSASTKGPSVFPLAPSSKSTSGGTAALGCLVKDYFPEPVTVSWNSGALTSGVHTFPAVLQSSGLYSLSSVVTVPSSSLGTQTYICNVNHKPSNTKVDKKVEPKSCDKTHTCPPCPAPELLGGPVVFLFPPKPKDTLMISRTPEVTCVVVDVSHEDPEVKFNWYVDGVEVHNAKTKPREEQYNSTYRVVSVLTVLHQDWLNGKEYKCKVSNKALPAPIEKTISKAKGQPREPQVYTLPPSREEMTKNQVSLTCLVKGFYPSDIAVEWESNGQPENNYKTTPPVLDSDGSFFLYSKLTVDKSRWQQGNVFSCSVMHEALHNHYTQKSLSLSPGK
VL: B1 VL
B7: humCL19v1 hIgG1 Y300N (antibody)
VH: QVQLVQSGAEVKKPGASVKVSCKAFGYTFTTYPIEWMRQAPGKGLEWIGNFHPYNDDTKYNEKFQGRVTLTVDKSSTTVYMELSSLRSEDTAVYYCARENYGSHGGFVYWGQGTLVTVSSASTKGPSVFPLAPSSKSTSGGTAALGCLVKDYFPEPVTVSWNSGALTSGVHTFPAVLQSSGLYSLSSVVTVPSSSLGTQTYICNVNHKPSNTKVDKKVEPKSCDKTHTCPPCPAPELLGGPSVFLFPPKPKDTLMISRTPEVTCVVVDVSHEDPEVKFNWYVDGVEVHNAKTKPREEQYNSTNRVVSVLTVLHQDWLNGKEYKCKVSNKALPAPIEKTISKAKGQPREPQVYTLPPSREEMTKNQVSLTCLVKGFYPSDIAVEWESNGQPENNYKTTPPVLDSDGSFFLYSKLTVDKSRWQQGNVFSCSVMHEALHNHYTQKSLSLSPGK
VL: B1 VL
B8: humCL19v3 (antibody, human IgG1, V domains shown)
VH: QVQLVQSGAEVKKPGASVKVSCKAFGYTFTTYPIEWMRQAPGKGLEWIGNFHPYNDDTKYNEKFQGRVTLTVDKSSTTVYMELSSLRSEDTAVYYCARENYGSHGGFVYWGQGTLVTVSS
VL: ENVLTQSPATLSLSPGERATLSCRASSSVISSYLHWYQQKPGQAPRLLIYSTSNLASGIPARFSGSGSGTDYTLTISSLEPEDFAVYYCQQYNSYPLTFGGGTKLEIK
notes: hu-VH1 + hu-VL3; human IgG1 kappa isotype
B9: humCL19v6 (antibody, human IgG1, V domains shown)
VH: B8 VH with M37V, I48M, L70M, S76T
VL: ENQLTQSPSSLSASVGDRVTITCRASSSVISSYLHWYQQKPGKAPKLLIYSTSNLASGVPSRFSGSGSGTDYTLTISSLQPEDFATYYCQQYRGYPLTFGGGTKLEIK
notes: hu-VH2 + hu-VL2; human IgG1 kappa isotype
B10: humCL19v11 (antibody, human IgG1, V domains shown)
VH: QVQLVQSGSELKKPGASVKVSCKAFGYTFTTYPIEWMRQAPGQGLEWIGNFHPYNDDTKYNEGFTGRFVLSVDKSSTTVYLQISSLKAEDTAVYYCARENYGSHGGFVYWGQGTLVTVSS
VL: B8 VL
notes: hu-VH3 + hu-VL3; human IgG1 kappa isotype
B11: humCL19v16 (antibody, human IgG1, V domains shown)
VH: B10 VH with M37V, I48M, L70F, S76V
VL: B8 VL with L55R, S57T
notes: hu-VH4 + hu-VL4; human IgG1 kappa isotype
B12: humCL19v8 (antibody, human IgG1, V domains shown)
VH: B8 VH with M37V, I48M, L70M, S76T
VL: B8 VL with L55R, S57T
notes: hu-VH2 + hu-VL4; human IgG1 kappa isotype
B13: humCL19v5 (antibody, human IgG1, V domains shown)
VH: B8 VH with M37V, I48M, L70M, S76T
VL: B9 VL with R93N, G94S
notes: hu-VH2 + hu-VL1; human IgG1 kappa isotype
B14: humCL19v7 (antibody, human IgG1, V domains shown)
VH: B8 VH with M37V, I48M, L70M, S76T
VL: B8 VL
notes: hu-VH2 + hu-VL3; human IgG1 kappa isotype
B15: humCL19v12 (antibody, human IgG1, V domains shown)
VH: B10 VH
VL: B8 VL with L55R, S57T
notes: hu-VH3 + hu-VL4; human IgG1 kappa isotype
B16: humCL19v2 (antibody, human IgG1, V domains shown)
VH: B8 VH
VL: B9 VL
notes: hu-VH1 + hu-VL2; human IgG1 kappa isotype
B17: humCL19v4 (antibody, human IgG1, V domains shown)
VH: B8 VH
VL: B8 VL with L55R, S57T
notes: hu-VH1 + hu-VL4; human IgG1 kappa isotype
B18: humCL19v9 (antibody, human IgG1, V domains shown)
VH: B10 VH
VL: B9 VL with R93N, G94S
notes: hu-VH3 + hu-VL1; human IgG1 kappa isotype
B19: humCL19v10 (antibody, human IgG1, V domains shown)
VH: B10 VH
VL: B9 VL
notes: hu-VH3 + hu-VL2; human IgG1 kappa isotype
B20: humCL19v13 (antibody, human IgG1, V domains shown)
VH: B10 VH with M37V, I48M, L70F, S76V
VL: B9 VL with R93N, G94S
notes: hu-VH4 + hu-VL1; human IgG1 kappa isotype
B21: humCL19v14 (antibody, human IgG1, V domains shown)
VH: B10 VH with M37V, I48M, L70F, S76V
VL: B9 VL
notes: hu-VH4 + hu-VL2; human IgG1 kappa isotype
B22: Parental (Clone 19 VH and VL) (antibody, V domains shown)
VH: QVQLQQSGAELVKPGASVKMSCKAFGYTFTTYPIEWMKQNHGKSLEWIGNFHPYNDDTKYNEKFKGKAKLTVEKSSTTVYLELSRLTSDDSAVYYCARENYGSHGGFVYWGQGTLVTVSG
VL: ENVLTQSPAIMSASPGEKVTMTCRASSSVISSYLHWYQQKSGASPKLWIYSTSNLASGVPDRFSGSGSGTSYSLTISSVEAEDAATYYCQQYNSYPLTFGAGTKLEIK
notes: The antibodies were captured through anti-human IgG and the variants were made on human IgG1 kappa, so it is probably a chimeric human IgG1 kappa

Columns and labels:
[1] = target: T1, human FcγR2A 131H allotype …; test: SPR (Biacore 8K), 37 C, steady state; antibody captured on immobilised human PD-1 ECD, FcR ECD as analyte
Method: (§1) The interactions were assessed by surface plasmon resonance using a Biacore 8 K with the recombinantly expressed FcRs (extracellular domains only) as analyte. Briefly, recombinant human PD-1 extracellular domain was covalently immobilized to both flow cells of all channels of a CM5 Series S sensor chip using the GE Healthcare Amine coupling kit. […] Steady state affinity analysis was then performed by injecting varying concentrations of FcR and measuring equilibrium binding. Double referencing was used (subtracting the signal in the reference Fc1 and also subtracting the signal from a blank zero concentration injection). KD values were calculated from the Langmuir curves (plotting equilibrium binding against analyte concentration to determine the concentration required for half maximal binding).

[2] = target: T2, human FcγR2A 131R allotype …; test: as above
Method: as §1

[3] = target: T3, human FcγR2B (recombinant, …); test: as above
Method: as §1

[4] = target: T4, soluble cynomolgus macaque PD-1 extracellular domain (cynomolgus macaque, UniProt B0LAJ3 25-170); test: SPR (Biacore 8K), 37 C, antibody captured via anti-human IgG, soluble PD-1 ECD as analyte, single cycle kinetics
T4 construct: also called Cyno PD-1; cynomolgus PD-1
Method: (§2) Antibody variants were produced consisting of all the potential combinations of humanized VH and VL domains. […] The binding affinity and kinetics of the humanized antibody variants to human or cynomolgus PD-1 were determined by surface plasmon resonance (SPR) using the Biacore 8 K (Cytiva). Human antibody capture kit (Cytiva) was used to coat a Series S CM5 Sensor Chip (Cytiva) with polyclonal anti-human IgG. Anti-PD-1 antibody was then captured onto the biosensor surface and an isotype control antibody captured in the reference channel. Various concentrations of monomeric soluble human PD-1 extracellular domain or soluble cynomolgus macaque PD-1 extracellular domain were then injected over the immobilized antibodies in the buffer 10 mM Hepes, 150 mM NaCl, 0.005% v/v Surfactant P20, pH 7.4 (HBS-P) at 37° C., in a single cycle kinetics analysis. Association and dissociation rates were fitted using BiaEvaluation Software (Cytiva) after reference and blank subtractions, and dissociation constants were calculated.

[5] = target: T5, monomeric soluble human PD-1 extracellular domain (human, UniProt Q15116 25-170); test: as above
T5 construct: extracellular domain; also called recombinant human PD-1 extracellular domain
Method: as §2

T5 sequence (Q15116 25-170): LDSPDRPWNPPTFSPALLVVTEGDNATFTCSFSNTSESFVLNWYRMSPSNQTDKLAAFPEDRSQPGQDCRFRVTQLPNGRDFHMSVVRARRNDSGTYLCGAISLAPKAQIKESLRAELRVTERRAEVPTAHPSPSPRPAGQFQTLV
T4 sequence (B0LAJ3 entry or part of it limits assumed): as the sequence (Q15116 25-170) above, with D2E, P10A, V19L, T35A, Q75R, T144A counted along it

Row | Binder | Kd [1] [nM] | Kd [2] [nM] | Kd [3] [nM] | Kd [4] [nM] | Kd [5] [nM]
1 | B1 | 13.5 | 12.3 | 59 |  | 
2 | B2 | 3.96 | 3.67 | 13.6 |  | 
3 | B3 | 90.3 | 17.5 | 2.79 |  | 
4 | B4 | 3.38 | 1.65 | 3.99 |  | 
5 | B5 | 6.28 | 0.58 | 1.54 |  | 
6 | B6 | 3.13 | 1.62 | 3.6 |  | 
7 | B7 | 2.83 | 2.22 | 6.32 |  | 
8 | B8 |  |  |  | 236 | 37.3
9 | B9 |  |  |  | 15200 | 2000
10 | B10 |  |  |  | 249 | 52.5
11 | B11 |  |  |  | 896 | 161
12 | B12 |  |  |  | 369 | 58.9
13 | B13 |  |  |  | 440 | 57.6
14 | B14 |  |  |  | 565 | 64.5
15 | B15 |  |  |  | 253 | 47.5
16 | B16 |  |  |  |  | 1010
17 | B17 |  |  |  | 199 | 32
18 | B18 |  |  |  | 251 | 44.8
19 | B19 |  |  |  |  | 670
20 | B20 |  |  |  |  | 160
21 | B21 |  |  |  |  | 80200
22 | B22 |  |  |  | 318 | 53.7
